Measured values as given in paper PMC12533375, “Critical Role of IL1R2‐ENO1 Interaction in Inhibiting Glycolysis‐Mediated Pyroptosis for Protection Against Lethal Sepsis” (Advanced Science, 2025).

Target: T1, recombinant mouse ENO1 (rmENO1) (mouse, UniProt P17182 1-434)
T1 construct: recombinant mouse ENO1, Creative BioMart Cat. No. Eno1-244 M; The vendor's data sheet should be consulted; source: bought: Creative BioMart (Cat. No. Eno1-244 M)
Test: SPR; OpenSPR (Nicoya); rmIL1R2 immobilised on a carboxyl sensor (EDC/NHS), rmENO1 as analyte at 12.5 to 50 nM; 40 µL/min, 20 °C; 50 mM Tris-HCl, 150 mM NaCl, 3 mM EDTA, 0.05% P20, 0.5 mM CaCl2, pH 7.4; global 1:1 fit
Conditions: both partners purified

T1 sequence (P17182 whole entry): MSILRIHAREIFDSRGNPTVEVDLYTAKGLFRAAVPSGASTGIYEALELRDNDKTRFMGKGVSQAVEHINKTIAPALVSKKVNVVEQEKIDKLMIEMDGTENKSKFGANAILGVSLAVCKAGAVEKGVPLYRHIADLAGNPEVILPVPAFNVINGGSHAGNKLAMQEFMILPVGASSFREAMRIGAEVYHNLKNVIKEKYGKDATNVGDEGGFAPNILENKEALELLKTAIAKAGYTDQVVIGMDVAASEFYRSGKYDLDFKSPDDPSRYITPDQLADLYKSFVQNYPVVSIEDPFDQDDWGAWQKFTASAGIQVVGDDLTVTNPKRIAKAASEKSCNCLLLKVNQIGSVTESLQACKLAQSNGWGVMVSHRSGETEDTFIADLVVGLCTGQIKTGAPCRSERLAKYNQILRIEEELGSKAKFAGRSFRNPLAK

- Kd: 1.99 nM
B1: recombinant mouse IL1R2 (rmIL1R2) (receptor, UniProt P27931 14-355, looked up)
chain: FTTPTVVHTGKVSESPITSEKPTVHGDNCQFRGREFKSELRLEGEPVVLRCPLAPHSDISSSSHSFLTWSKLDSSQLIPRDEPRMWVKGNILWILPAVQQDSGTYICTFRNASHCEQMSVELKVFKNTEASLPHVSYLQISALSTTGLLVCPDLKEFISSNADGKIQWYKGAILLDKGNKEFLSAGDPTRLLISNTSMDDAGYYRCVMTFTYNGQEYNITRNIELRVKGTTTEPIPVIISPLETIPASLGSRLIVPCKVFLGTGTSSNTIVWWLANSTFISAAYPRGRVTEGLHHQYSENDENYVEVSLIFDPVTREDLHTDFKCVASNPRSSQSLHTTVKE
notes: recombinant mouse IL1R2, R&D Systems Cat. No. 563-MR-100; The vendor's data sheet should be consulted; source: bought: R&D Systems (Cat. No. 563-MR-100)
